This experiment concerns the target T1, Isu1, mature form (amino acids 35-165) (yeast, UniProt Q03020 35-165).
T1 sequence (looked up): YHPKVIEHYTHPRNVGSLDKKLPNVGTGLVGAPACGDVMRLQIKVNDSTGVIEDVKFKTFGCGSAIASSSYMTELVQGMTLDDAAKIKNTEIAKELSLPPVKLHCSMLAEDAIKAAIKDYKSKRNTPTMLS
Briefly: other fluorescence titration.

B1: Yfh1 (yeast frataxin), wild type, mature form (amino acids 52-174), holo form (natural protein, S. cerevisiae (yeast), UniProt Q07540 52-174, looked up)
chain: VESSTDGQVVPQEVLNLPLEKYHEEADDYLDHLLDSLEELSEAHPDCIPDVELSHGVMTLEIPAFGTYVINKQPPNKQIWLASPLSGPNRFDLLNGEWVSLRNGTKLTDILTEEVEKAISKSQ
B1: the binding result was “binds”.
